Measurements: patent publication US20220332804A1 (CSL INNOVATION, published 2022)

Columns and labels:
Test in all cases: SPR, mAb captured, C2 mutant analyte;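 also: Anti-C2 mAbs captured on goat anti-human IgG Biacore CM5 chips, alanine or serine C2 surface mutants flowed over at 37 °C, double-referenced sensorgrams fitted to a 1:1 binding model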
human C2 H446A = molecular target: T1, human C2 H446A (human, UniProt P06681 21-752)
T1 sequence: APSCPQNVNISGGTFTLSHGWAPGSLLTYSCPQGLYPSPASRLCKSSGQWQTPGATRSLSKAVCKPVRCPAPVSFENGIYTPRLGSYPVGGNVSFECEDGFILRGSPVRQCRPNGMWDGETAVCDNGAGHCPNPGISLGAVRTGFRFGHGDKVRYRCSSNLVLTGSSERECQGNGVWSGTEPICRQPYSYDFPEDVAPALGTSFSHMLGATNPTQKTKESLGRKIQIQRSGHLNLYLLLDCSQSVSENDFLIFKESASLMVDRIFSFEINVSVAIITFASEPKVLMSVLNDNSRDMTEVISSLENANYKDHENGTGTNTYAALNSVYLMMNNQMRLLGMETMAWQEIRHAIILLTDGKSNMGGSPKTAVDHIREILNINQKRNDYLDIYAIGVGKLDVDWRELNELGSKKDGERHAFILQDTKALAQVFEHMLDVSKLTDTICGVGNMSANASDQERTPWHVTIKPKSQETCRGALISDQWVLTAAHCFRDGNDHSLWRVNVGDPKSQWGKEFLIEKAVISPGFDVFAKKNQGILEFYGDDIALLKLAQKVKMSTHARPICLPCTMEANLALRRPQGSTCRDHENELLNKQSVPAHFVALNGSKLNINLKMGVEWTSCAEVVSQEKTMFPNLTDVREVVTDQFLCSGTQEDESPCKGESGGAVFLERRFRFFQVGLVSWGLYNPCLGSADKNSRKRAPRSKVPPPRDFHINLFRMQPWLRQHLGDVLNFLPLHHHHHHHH
Experimental: (§1) Surface plasmon resonance (SPR, Biacore) was used for all binding affinity analyses. In brief, goat anti-human IgG was directly immobilised onto the carboxymethyl dextran surface of CM5 sensorchips to approximately 12,000 RU using standard NHS/EDC chemistry at pH 5. The immobilised antibody surface was pre-conditioned with ten injections of polyclonal human IgG (Privigen 60 s) prepared at 1 μg/mL. Ligands (anti-C2 mAbs) were captured at the beginning of each cycle as described below. An adjacent spot or flow cell in which only Polyclonal IgG was capture was used as a reference surface. The goat anti-human IgG Fc antibody surface was regenerate in 100 mM H3PO4, injected for 45 seconds at the end of each cycle. Experiments were performed at 37° C. and the flow rate of each experiment was kept constant at 30 μL/min.
(§2) Sensogram data was double-referenced against a reference anti-IgG surface (i.e. minus anti-C2 mAb) and blank buffer injections obtained within each experiment. The binding data was fit to 1:1 (kinetic or steady-state) model using local Rmax and null refraction index (RI=0) when appropriate. Buffers and solutions were filtered (0.22 μm) prior to use.

human C2 S473A = molecular target: T2, human C2 S473A (human, UniProt P06681 21-752)
T2 sequence: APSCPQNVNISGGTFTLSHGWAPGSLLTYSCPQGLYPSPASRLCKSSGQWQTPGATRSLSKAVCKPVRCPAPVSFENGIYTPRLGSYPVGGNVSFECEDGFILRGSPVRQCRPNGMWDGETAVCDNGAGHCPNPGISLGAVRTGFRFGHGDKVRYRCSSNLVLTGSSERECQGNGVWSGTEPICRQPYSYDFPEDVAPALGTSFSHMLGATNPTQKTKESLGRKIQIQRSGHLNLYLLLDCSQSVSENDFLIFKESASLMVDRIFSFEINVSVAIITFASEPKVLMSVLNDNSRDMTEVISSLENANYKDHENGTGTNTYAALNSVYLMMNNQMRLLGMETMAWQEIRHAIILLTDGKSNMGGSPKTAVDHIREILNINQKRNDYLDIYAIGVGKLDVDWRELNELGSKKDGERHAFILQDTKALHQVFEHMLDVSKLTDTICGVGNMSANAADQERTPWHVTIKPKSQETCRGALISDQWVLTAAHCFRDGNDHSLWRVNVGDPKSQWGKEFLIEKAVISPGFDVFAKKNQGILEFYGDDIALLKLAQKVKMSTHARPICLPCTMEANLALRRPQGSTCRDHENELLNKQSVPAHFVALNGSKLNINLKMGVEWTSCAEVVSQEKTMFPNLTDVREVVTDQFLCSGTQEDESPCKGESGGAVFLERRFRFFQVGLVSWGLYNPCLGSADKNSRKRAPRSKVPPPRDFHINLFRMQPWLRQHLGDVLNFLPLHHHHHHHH
Experimental: as §1, §2

human C2 G466A = molecular target: T3, human C2 G466A (human, UniProt P06681 21-752)
T3 sequence: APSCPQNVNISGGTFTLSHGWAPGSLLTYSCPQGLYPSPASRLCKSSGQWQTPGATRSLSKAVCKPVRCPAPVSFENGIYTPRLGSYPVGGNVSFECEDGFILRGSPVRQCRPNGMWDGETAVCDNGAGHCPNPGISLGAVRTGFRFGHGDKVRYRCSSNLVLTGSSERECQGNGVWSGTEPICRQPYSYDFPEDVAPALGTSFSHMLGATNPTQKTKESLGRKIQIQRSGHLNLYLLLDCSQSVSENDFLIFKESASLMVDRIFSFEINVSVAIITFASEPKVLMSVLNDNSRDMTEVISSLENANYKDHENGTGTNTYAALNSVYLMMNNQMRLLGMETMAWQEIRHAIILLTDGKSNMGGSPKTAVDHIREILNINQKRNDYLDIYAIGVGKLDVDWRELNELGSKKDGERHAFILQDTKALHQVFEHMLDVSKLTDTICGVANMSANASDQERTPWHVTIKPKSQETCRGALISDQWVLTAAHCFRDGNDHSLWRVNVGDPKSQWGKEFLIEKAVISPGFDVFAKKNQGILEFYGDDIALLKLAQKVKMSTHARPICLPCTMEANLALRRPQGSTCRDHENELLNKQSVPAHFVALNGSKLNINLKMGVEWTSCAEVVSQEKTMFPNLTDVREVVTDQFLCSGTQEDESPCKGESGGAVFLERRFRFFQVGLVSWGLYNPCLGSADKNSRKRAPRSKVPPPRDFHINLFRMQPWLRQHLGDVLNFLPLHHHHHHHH
Experimental: as §1, §2

human C2 G414A = molecular target: T4, human C2 G414A (human, UniProt P06681 21-752)
T4 sequence: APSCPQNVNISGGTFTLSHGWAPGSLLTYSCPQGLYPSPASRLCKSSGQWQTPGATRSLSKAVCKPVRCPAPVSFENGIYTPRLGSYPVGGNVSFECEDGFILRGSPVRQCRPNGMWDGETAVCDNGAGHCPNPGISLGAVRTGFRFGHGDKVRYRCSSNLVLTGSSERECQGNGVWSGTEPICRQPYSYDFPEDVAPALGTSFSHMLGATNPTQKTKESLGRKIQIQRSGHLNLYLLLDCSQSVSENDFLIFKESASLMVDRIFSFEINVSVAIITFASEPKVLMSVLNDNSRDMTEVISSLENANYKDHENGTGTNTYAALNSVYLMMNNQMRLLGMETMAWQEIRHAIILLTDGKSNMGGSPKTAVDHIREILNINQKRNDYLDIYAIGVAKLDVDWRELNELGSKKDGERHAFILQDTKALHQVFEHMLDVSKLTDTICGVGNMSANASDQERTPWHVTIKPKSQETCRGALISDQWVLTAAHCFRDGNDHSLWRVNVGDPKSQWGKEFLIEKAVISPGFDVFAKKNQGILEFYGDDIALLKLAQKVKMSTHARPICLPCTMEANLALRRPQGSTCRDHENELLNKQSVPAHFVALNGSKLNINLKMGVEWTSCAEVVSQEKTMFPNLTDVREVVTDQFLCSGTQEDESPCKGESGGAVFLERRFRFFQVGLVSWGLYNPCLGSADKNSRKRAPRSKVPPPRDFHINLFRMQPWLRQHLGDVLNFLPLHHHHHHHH
Experimental: as §1, §2

B1: RF16-214 (antibody, V domains shown)
VH: EVQLLESGGGLVQPGGSLRLSCAASGFTFSWYQMMWVRQAPGKGLEWVSRIYPSGGGTAYADSVKGRFTISRDNSKNTLYLQMNSLRAEDTAVYYCARDAGYGDNWGQGTLVTVSS
VL: QSALTQPPSVSVSPGQTASITCSGDKLGEKYASWYQQKAGQSPVMVIYQDRKRPSGIPERFSGSNSGNTATLTISGTQAMDEADYYCQAWDTRAVVFGGGTKLTVLG
For B1, the Kd (human C2 H446A) was 153 nM, the Kd (human C2 S473A) was 68.7 nM and the Kd (human C2 G466A) was 144 nM. For the same binder, the Kd (human C2 G414A) was 14.8 nM.
